Reference: patent US20240270857A1 (CHIA TAI TIANQING PHARMACEUTICAL GROUP, published 2024)

Tests used:
[1] = target: T1, human IL-36R overexpressed on 293T-hIL36R-NFκB cells (human, UniProt Q9HB29 20-575); experiment: cell-based or functional assay
T1 sequence: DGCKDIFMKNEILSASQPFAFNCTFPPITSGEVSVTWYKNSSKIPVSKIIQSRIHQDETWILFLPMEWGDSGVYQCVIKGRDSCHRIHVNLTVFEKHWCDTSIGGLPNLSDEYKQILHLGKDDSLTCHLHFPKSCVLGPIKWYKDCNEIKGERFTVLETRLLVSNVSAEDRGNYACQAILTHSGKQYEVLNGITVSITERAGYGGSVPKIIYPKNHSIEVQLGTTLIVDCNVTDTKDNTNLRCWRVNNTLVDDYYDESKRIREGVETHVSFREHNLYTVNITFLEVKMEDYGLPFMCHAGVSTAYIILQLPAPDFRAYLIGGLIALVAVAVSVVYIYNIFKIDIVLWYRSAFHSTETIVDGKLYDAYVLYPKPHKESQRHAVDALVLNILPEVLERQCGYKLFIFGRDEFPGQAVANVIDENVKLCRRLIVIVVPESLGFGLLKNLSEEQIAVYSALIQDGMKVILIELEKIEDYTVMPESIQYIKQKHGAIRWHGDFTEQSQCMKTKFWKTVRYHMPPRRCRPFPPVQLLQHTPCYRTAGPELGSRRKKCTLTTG

[2] = target: T2, CynoIL36R-ECD mFc recombinant protein (cynomolgus monkey); experiment: ELISA, plate coated with CynoIL36R-ECD mFc, HRP-protein A/G, OD450
T2 construct: Made in ExpiCHO, purified on Protein A; also called cynomolgus IL-36R extracellular region with mouse antibody heavy chain Fc
T2 chain: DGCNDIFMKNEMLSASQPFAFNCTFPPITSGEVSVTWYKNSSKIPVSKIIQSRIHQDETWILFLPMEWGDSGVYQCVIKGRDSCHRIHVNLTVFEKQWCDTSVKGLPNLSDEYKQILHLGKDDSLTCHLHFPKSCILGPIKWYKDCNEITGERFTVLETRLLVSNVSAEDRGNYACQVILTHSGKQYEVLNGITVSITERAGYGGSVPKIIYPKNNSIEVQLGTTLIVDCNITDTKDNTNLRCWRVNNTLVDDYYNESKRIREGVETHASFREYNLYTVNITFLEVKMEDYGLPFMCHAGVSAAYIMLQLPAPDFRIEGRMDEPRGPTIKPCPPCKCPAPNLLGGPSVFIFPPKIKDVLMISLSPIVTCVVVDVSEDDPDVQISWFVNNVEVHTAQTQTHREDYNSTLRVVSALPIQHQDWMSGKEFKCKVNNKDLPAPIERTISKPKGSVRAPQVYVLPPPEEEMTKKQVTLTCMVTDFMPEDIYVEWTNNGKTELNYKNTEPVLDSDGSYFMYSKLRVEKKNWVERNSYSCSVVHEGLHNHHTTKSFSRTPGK
Protocol: (§1) The binding activity of anti-IL-36R antibodies to IL-36R was analyzed by ELISA using human IL-1Rrp2/IL-1R6 protein, His Tag (ACROBiosystems, IL2-H52H6) and CynoIL36R-ECD mFc (for detection of chimeric and humanized antibodies), and hIL36R-ECD hFc and CynoIL36R-ECD hFc protein (for detection of hybridoma antibodies) as antigens. A 96-well plate (Costar, 9018) was coated with 2 μg/mL antigen at 100 μL/well and incubated overnight at 4° C. After the 96-well plate was washed with a washing buffer (PBS containing 0.05% v/v Tween 20), a blocking buffer (PBS containing 2% bovine serum albumin) was added for blocking at 37° C. for 2 h. After the 96-well plate was washed with the washing buffer, 100 μL of the gradient diluted anti-IL-36R antibody of the present disclosure or the reference antibody BI655130 (the initial concentration of the antibody was 66 nM, 4-fold gradient dilution) was added to each well, and the plate was incubated at room temperature for 1 h. After the 96-well plate was washed with the washing buffer, 100 μL of horseradish peroxidase-conjugated recombinant protein A/G (TheroScientific, 32490) was added to each well, and the plate was incubated at room temperature for 1 h. After the 96-well plate was washed with the washing buffer, 100 μL of a TMB solution (Thermo, 00-4201-56) was added to each well, and the plate was incubated at room temperature for 2 min. Finally, 100 μL of a stop solution (2 N H₂SO₄) was added to each well to stop the reaction. Absorbance was read at 450 nm using a microplate reader (PE, Envision), the resulting data was analyzed using GraphPad Prism, and EC₅₀ was calculated. Binding EC₅₀ of the chimeric anti-IL-36R antibodies to hIL-36R in an ELISA assay is shown in FIG. 1. and binding EC₅₀ of the chimeric anti-IL-36R antibodies to CynoIL-36R in an ELISA assay is shown in FIG. 2. The binding of BI655130 is shown as a control, and the binding of IgG4 is shown as a negative control.

[3] = target: T3, IL-36R naturally expressed on OVCAR8 cells and on normal human epidermal keratinocytes (NHK cells) (human, UniProt Q9HB29 20-575); experiment: cell-based or functional assay
T3 sequence (looked up): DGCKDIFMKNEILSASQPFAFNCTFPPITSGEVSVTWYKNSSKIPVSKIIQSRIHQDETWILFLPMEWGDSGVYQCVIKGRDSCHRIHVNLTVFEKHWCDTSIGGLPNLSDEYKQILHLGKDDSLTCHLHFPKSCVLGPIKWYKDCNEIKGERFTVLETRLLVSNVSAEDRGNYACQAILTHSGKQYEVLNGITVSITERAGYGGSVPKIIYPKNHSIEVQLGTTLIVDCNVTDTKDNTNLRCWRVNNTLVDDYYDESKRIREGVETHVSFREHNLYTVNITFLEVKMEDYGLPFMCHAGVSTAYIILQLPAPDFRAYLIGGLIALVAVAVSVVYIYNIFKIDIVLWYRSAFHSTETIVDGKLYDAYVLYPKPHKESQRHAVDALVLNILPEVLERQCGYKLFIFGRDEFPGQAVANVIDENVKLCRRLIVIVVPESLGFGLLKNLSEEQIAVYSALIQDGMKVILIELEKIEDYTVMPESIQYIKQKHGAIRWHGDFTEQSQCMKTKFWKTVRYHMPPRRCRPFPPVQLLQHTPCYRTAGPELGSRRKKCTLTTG

[4] = target: T4, Human IL-1Rrp2/IL-1R6 protein, His Tag (ACROBiosystems, IL2-H52H6) (human, UniProt Q9HB29 20-335); experiment: ELISA, plate coated with human IL-1Rrp2/IL-1R6 His Tag, HRP-protein A/G, OD450
T4 construct: Bought protein; the soluble protein is likely only the extracellular part; also called hIL-36R; human IL36R antigen; not shown: His tag
T4 sequence: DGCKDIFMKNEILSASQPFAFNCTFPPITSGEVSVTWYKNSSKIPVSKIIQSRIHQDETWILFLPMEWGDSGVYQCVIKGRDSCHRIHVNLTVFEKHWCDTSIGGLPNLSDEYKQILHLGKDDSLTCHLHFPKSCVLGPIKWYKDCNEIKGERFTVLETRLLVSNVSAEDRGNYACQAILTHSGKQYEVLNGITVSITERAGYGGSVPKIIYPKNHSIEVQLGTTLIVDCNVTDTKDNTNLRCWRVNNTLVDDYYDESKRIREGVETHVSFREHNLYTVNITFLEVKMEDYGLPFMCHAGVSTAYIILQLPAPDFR
Protocol: as §1

B1: BI655130 (antibody, human IgG1, kappa, L234A L235A)
heavy: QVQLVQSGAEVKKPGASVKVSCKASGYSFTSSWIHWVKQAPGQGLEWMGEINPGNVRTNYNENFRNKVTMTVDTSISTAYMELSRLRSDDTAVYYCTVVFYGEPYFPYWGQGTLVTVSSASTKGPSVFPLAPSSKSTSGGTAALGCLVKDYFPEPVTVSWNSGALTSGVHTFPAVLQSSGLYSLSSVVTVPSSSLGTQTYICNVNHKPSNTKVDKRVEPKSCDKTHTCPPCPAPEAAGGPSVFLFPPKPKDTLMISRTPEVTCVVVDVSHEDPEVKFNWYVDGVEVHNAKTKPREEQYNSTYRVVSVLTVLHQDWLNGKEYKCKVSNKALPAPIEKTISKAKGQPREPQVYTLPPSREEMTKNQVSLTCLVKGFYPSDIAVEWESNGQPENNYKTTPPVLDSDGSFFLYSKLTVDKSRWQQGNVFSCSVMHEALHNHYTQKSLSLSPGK
light: QIVLTQSPGTLSLSPGERATMTCTASSSVSSSYFHWYQQKPGQAPRLWIYRTSRLASGVPDRFSGSGSGTDFTLTISRLEPEDAATYYCHQFHRSPLTFGAGTKLEIKRTVAAPSVFIFPPSDEQLKSGTASVVCLLNNFYPREAKVQWKVDNALQSGNSQESVTEQDSKDSTYSLSSTLTLSKADYEKHKVYACEVTHQGLSSPVTKSFNRGEC
notes: also called Spesolimab
[1]
  IC50 (M); hIL36α; NFκB-luciferase: 1.75e-09 M
  IC50 (M); hIL36αβγ; NFκB-luciferase: 3.27e-09 M
  IC50 (M); hIL36β; NFκB-luciferase: 2.21e-09 M
  IC50 (M); hIL36γ; NFκB-luciferase: 1.1e-09 M
  Maximum inhibition rate %; hIL36α; NFκB-luciferase: 83.6%
  Maximum inhibition rate %; hIL36αβγ; NFκB-luciferase: 63.3%
  Maximum inhibition rate %; hIL36β; NFκB-luciferase: 85.2%
  Maximum inhibition rate %; hIL36γ; NFκB-luciferase: 81%
[2]
  EC50: 1.89 nM
[3]
  IC50; IL-8 production of NHK cells stimulated with hIL36β, inhibition rate %: 0.248 nM
[4]
  EC50: 0.761 nM

B2: hz84C4-1.1 (antibody, human IgG4 S228P, kappa, V domains shown)
VH: QVQLVQSGAEVKKPGASVKVSCKASGYFFTSYWMNWVRQAPGQGLEWMGMIHPYDSETRYAQKFQGRVTMTVDKSTSTVYMELSSLRSEDTAVYYCASSTTAFAYWGQGTLVTVSS
VL: DIQMTQSPSSLSASVGDRVTITCRASQDIGNALNWYQQKPGKAPKRLIYATSSLDPGVPSRFSGSRSGTDFTLTISSLQPEDFATYYCLQYASSPYTFGQGTKVEIKR
notes: Humanized, human IgG4 / kappa
[1]
  IC50 (M); hIL36α; NFκB-luciferase: 8.82e-10 M
  IC50 (M); hIL36αβγ; NFκB-luciferase: 1.82e-09 M
  IC50 (M); hIL36β; NFκB-luciferase: 9.28e-10 M
  IC50 (M); hIL36γ; NFκB-luciferase: 5.76e-10 M
  Maximum inhibition rate %; hIL36α; NFκB-luciferase: 84.1%
  Maximum inhibition rate %; hIL36αβγ; NFκB-luciferase: 61.2%
  Maximum inhibition rate %; hIL36β; NFκB-luciferase: 85.3%
  Maximum inhibition rate %; hIL36γ; NFκB-luciferase: 83.5%

B3: hz84C4-2.5 (antibody, human IgG4 S228P, kappa, V domains shown)
VH: QVQLVQSGAEVKKPGASVKVSCKVSGYFFTSYWMNWVNQAPGQGLEWMGMIHPYDSETRLAQKFKGRVTMTVDKSTSTVYMELSSLRSEDTAVYYCASSTTAFAYWGQGTLVTVSS
VL: DIQMTQSPSSLSASVGDRVTITCRASQDIGNALNWLQQKPGKAPKRLIYATSSLDPGVPSRFSGSRSGTDYTLTISSLQPEDFATYYCLQYASSPYTFGQGTKVEIKR
notes: Humanized, human IgG4 / kappa
[1]
  IC50 (M); hIL36α; NFκB-luciferase: 9.38e-10 M
  IC50 (M); hIL36αβγ; NFκB-luciferase: ~1.55e-09 M
  IC50 (M); hIL36β; NFκB-luciferase: 7.66e-10 M
  IC50 (M); hIL36γ; NFκB-luciferase: 3.5e-10 M
  Maximum inhibition rate %; hIL36α; NFκB-luciferase: 85.7%
  Maximum inhibition rate %; hIL36αβγ; NFκB-luciferase: 54.4%
  Maximum inhibition rate %; hIL36β; NFκB-luciferase: 83.1%
  Maximum inhibition rate %; hIL36γ; NFκB-luciferase: 84.7%

B4: chimeric 72C1 antibody (antibody, human IgG4 S228P, kappa)
heavy: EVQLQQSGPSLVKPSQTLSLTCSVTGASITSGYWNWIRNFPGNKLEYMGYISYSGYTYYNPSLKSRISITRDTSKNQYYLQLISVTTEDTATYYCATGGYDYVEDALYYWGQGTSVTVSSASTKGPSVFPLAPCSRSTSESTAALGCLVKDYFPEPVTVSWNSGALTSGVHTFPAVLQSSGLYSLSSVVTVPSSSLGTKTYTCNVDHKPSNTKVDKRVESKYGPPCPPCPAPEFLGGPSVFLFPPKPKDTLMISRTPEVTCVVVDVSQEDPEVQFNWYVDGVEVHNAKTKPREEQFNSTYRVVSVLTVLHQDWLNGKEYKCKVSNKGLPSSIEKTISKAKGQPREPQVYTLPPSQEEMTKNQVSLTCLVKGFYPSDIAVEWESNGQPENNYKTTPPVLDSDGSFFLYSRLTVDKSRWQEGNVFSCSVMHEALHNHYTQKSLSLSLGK
light: EILLTQSPAIMSATLGEKVTMSCRASSNVRYMYWYQLKSGASPKLWIYLTSNLASGVPARFSGSGSGTSYSLTISSVEAEDAATYFCQQFTTSPYTFGGGTKLEIKRTVAAPSVFIFPPSDEQLKSGTASVVCLLNNFYPREAKVQWKVDNALQSGNSQESVTEQDSKDSTYSLSSTLTLSKADYEKHKVYACEVTHQGLSSPVTKSFNRGEC
notes: Mouse variable regions on human IgG4 / kappa; also called xi72C1
[2]
  EC50: 3.02 nM
[3]
  IC50; IL-8 production of NHK cells stimulated with hIL36β, inhibition rate %: 0.474 nM
[4]
  EC50: 2.62 nM

B5: chimeric 84C4 antibody (antibody, human IgG4 S228P, kappa)
heavy: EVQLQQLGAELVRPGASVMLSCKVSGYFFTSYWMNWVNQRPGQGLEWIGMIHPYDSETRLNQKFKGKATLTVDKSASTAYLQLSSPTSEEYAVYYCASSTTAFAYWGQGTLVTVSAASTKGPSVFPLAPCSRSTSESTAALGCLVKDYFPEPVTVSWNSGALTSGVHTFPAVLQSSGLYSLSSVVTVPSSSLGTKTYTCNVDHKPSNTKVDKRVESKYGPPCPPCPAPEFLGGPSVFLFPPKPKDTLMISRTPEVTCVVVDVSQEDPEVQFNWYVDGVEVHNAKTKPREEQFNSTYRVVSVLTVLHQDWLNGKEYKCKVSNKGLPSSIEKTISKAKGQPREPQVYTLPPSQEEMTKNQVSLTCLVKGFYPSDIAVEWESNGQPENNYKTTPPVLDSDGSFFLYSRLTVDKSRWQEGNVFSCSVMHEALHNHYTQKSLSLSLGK
light: DILMTQSPSSLSASLGERVSLTCRASQDIGNALNWLQQAPDGTIKRLIYATSSLDPGVPKRFSGSRSGSDYSLTISSLASEDFVYYYCLQYASSPYTFGGGTKLEIKRTVAAPSVFIFPPSDEQLKSGTASVVCLLNNFYPREAKVQWKVDNALQSGNSQESVTEQDSKDSTYSLSSTLTLSKADYEKHKVYACEVTHQGLSSPVTKSFNRGEC
notes: Mouse variable regions on human IgG4 / kappa; also called xi84C4
[2]
  EC50: 21.9 nM
[3]
  IC50; IL-8 production of NHK cells stimulated with hIL36β, inhibition rate %: 0.848 nM
[4]
  EC50: 0.97 nM
